For this data set, the target named is RFX5 DBD (Homo sapiens) (UniProt P48382). Put plainly: EMSA. The note with it: KD values only in figure; hmC/mC CpG; EMSA: 20 mM HEPES, 30 mM KCl, 1 mM EDTA, 1 mM (NH4)2SO4, 0.2% Tween 20, 1 mM DTT, 5 uM dA:dT competitor, 2 nM DNA, 20 min, 21 C (pH not stated); pulldown: 50 mM.
Chain of RFX5 DBD (Homo sapiens) (P48382 75-168): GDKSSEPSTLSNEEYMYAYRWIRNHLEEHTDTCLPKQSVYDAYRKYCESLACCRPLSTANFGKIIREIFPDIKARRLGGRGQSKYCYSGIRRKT

As to X-box 1 probe hmC/mC, the binding signal (fold weaker than mC/mC (KD)) was 2.5.

The values above are taken from article PMC13042984.
